Here are results for 15 variants from the supplement of paper PMC7125110.

± gives the standard error. For some assays here: Variants at the floor of the assay were thinned out.

B1: glmS ribozyme (parent)
chain: AUAAAAGCGCCAGAACUACAGAAAUGUAGUUGACGAGGAGGAGGUUUAUCGAAUUUUCGGCGGAUGCCUCCAAA

Details in all cases: with glucosamine-6-phosphate
Series [1] covers variants of B1. The series is described as follows: kcat; higher = faster cleavage; RNA array. Put shortly: (§1)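 Barcoded ribozyme variants on sequenced MiSeq chips were transcribed in situ by E. coli RNA polymerase and followed at 37 °C through a hybridised Cy3 probe. Glucosamine-6-phosphate at 40 μM to 10 mM in HEPES/KCl/Mg(OAc)2 buffer was flowed in, and tiles were imaged over ~14 h. Signals were normalised to baseline and to non-cleaving reference variants, and per-tile medians were fit to one- or two-exponential decays to give kobs. Weighted Michaelis–Menten fits across concentrations gave kcat and KM.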

In series [2] the parent is B1. In words: KM; higher = weaker cofactor use; RNA array. Put shortly: as §1
Variants of B1 are the subject of series [3]. In words: self-cleavage kobs at 640 uM GlcN6P; higher = faster cleavage; RNA array. Put shortly:
as §1

In series [4] the parent is B1. The series is described as follows: self-cleavage kobs at 2500 uM GlcN6P; higher = faster cleavage; RNA array. The gist of the method:
as §1

Series [5] covers variants of B1. In words: self-cleavage kobs at 10000 uM GlcN6P; higher = faster cleavage; RNA array. The gist of the method: as §1
In series [6] the parent is B1. In words: self-cleavage kobs at 160 uM GlcN6P; higher = faster cleavage; RNA array. Put shortly: as §1
The variants in series [7] derive from B1. In words: self-cleavage kobs at 40 uM GlcN6P; higher = faster cleavage; RNA array. Put shortly:
as §1

As a reminder, the kcat is the number of substrate molecules converted per active site and unit of time at saturation. Usually KM stands for the concentration of substrate that gives half-maximal velocity. Turning to C58A G66A, the kcat in series [1] was determined as 0.000322 ± 5.8e-05 s⁻¹. Moreover, in series [2], the KM was 4.64 ± 1.5 mM. The “self-cleavage kobs at 640 uM GlcN6P” value in series [3] came out at 4.87e-05 ± 1e-05 s⁻¹. For the same variant, the “self-cleavage kobs at 2500 uM GlcN6P” value in series [4] was determined as 9.9e-05 ± 1.6e-05 s⁻¹. Moreover, in series [5], the “self-cleavage kobs at 10000 uM GlcN6P” value came out at 0.000228 ± 2.8e-05 s⁻¹.
The like results for A12C U57C were, in that order, 0.000312 ± 5.1e-05 s⁻¹, 4.85 ± 1.6 mM, 4.73e-05 ± 1.2e-05 s⁻¹, 9.32e-05 ± 1.7e-05 s⁻¹ and 0.000214 ± 2.2e-05 s⁻¹.
The like results for A12G U45G were, in that order, 0.000591 ± 1.8e-05 s⁻¹, 5.26 ± 0.3 mM, 6.36e-05 ± 1.3e-05 s⁻¹, 0.000197 ± 4.2e-05 s⁻¹ and 0.000386 ± 3.9e-05 s⁻¹.
On to G32A C67A, for which the kcat in series [1] came to 0.000956 ± 0.00011 s⁻¹. For the same variant, the KM in series [2] came to 2.73 ± 0.63 mM. Further, in series [6], the “self-cleavage kobs at 160 uM GlcN6P” value was 5.05e-05 ± 1.6e-05 s⁻¹. Besides, the “self-cleavage kobs at 640 uM GlcN6P” value in series [3] stood at 0.000168 ± 3.4e-05 s⁻¹. The “self-cleavage kobs at 2500 uM GlcN6P” value in series [4] turned out to be 0.000586 ± 0.00011 s⁻¹. Further, the “self-cleavage kobs at 10000 uM GlcN6P” value in series [5] was 0.000728 ± 8.2e-05 s⁻¹.
Regarding U55C U65C, in series [1], the kcat was determined as 0.000217 ± 5e-05 s⁻¹. Besides, in series [3], the “self-cleavage kobs at 640 uM GlcN6P” value came out at 7.31e-05 ± 1.1e-05 s⁻¹. In series [4], the “self-cleavage kobs at 2500 uM GlcN6P” value came to 0.00011 ± 1.9e-05 s⁻¹. The “self-cleavage kobs at 10000 uM GlcN6P” value in series [5] turned out to be 0.000217 ± 3.1e-05 s⁻¹.
With U49G U56C, the kcat in series [1] came out at 0.000112 ± 1.1e-05 s⁻¹. The “self-cleavage kobs at 640 uM GlcN6P” value in series [3] came out at 7.28e-05 ± 2.5e-05 s⁻¹. Moreover, the “self-cleavage kobs at 2500 uM GlcN6P” value in series [4] was found to be 0.000127 ± 2.5e-05 s⁻¹. For the same variant, the “self-cleavage kobs at 10000 uM GlcN6P” value in series [5] was 0.000103 ± 1.2e-05 s⁻¹.
As for G32U U54C, the kcat in series [1] was determined as 0.000958 ± 0.00028 s⁻¹. The KM in series [2] came to 5.3 ± 2.3 mM. The “self-cleavage kobs at 640 uM GlcN6P” value in series [3] is 0.000126 ± 1.5e-05 s⁻¹. In addition, in series [4], the “self-cleavage kobs at 2500 uM GlcN6P” value turned out to be 0.000272 ± 3.3e-05 s⁻¹. In addition, in series [5], the “self-cleavage kobs at 10000 uM GlcN6P” value was determined as 0.000665 ± 8.6e-05 s⁻¹.
In the case of G37U C58U, the kcat in series [1] was less than 1e-05 s⁻¹. Besides, the “self-cleavage kobs at 10000 uM GlcN6P” value in series [5] was less than 1e-05 s⁻¹.
As to G40A U57A, the kcat in series [1] came out at 3.08e-05 ± 6.4e-06 s⁻¹. Also, the “self-cleavage kobs at 40 uM GlcN6P” value in series [7] was less than 1e-05 s⁻¹. The “self-cleavage kobs at 160 uM GlcN6P” value in series [6] is less than 1e-05 s⁻¹. In series [4], the “self-cleavage kobs at 2500 uM GlcN6P” value worked out at 3.99e-05 ± 1.3e-05 s⁻¹. For the same variant, the “self-cleavage kobs at 10000 uM GlcN6P” value in series [5] is 2.63e-05 ± 9.5e-06 s⁻¹.
Turning to A39U G41A, in series [1], the kcat was determined as 0.00029 ± 1.6e-05 s⁻¹. In addition, in series [2], the KM is 0.651 ± 0.093 mM. Moreover, the “self-cleavage kobs at 160 uM GlcN6P” value in series [6] is 5.88e-05 ± 1.3e-05 s⁻¹. Moreover, the “self-cleavage kobs at 640 uM GlcN6P” value in series [3] is 0.00014 ± 1.5e-05 s⁻¹. In series [4], the “self-cleavage kobs at 2500 uM GlcN6P” value came to 0.00025 ± 2.7e-05 s⁻¹. Also, the “self-cleavage kobs at 10000 uM GlcN6P” value in series [5] was 0.000257 ± 3e-05 s⁻¹.
As to C16G U55C, the kcat in series [1] was found to be 0.00146 ± 0.00056 s⁻¹. The “self-cleavage kobs at 40 uM GlcN6P” value in series [7] worked out at 4.65e-05 ± 1.3e-05 s⁻¹. Also, the “self-cleavage kobs at 160 uM GlcN6P” value in series [6] amounted to 0.000158 ± 7.7e-05 s⁻¹. Further, the “self-cleavage kobs at 640 uM GlcN6P” value in series [3] came out at 0.000574 ± 8.2e-05 s⁻¹. For the same variant, in series [4], the “self-cleavage kobs at 2500 uM GlcN6P” value amounted to 0.000702 ± 0.00013 s⁻¹. Also, in series [5], the “self-cleavage kobs at 10000 uM GlcN6P” value is 0.00213 ± 0.00033 s⁻¹.
Consider A14G C16U G43A C67G, for which the kcat in series [1] worked out at 0.00284 ± 0.00076 s⁻¹. Moreover, the KM in series [2] came out at 2.84 ± 1.1 mM. Besides, the “self-cleavage kobs at 40 uM GlcN6P” value in series [7] turned out to be 4.98e-05 ± 2.2e-05 s⁻¹. Besides, the “self-cleavage kobs at 160 uM GlcN6P” value in series [6] came to 0.000207 ± 7.1e-05 s⁻¹. In addition, in series [3], the “self-cleavage kobs at 640 uM GlcN6P” value was determined as 0.000459 ± 8.8e-05 s⁻¹. Further, in series [4], the “self-cleavage kobs at 2500 uM GlcN6P” value stood at 0.00221 ± 0.00072 s⁻¹. For the same variant, the “self-cleavage kobs at 10000 uM GlcN6P” value in series [5] stood at 0.00217 ± 0.00045 s⁻¹.
Consider C16U A48G, for which, in series [1], the kcat was found to be 7.95e-05 ± 1.2e-05 s⁻¹. Further, the “self-cleavage kobs at 2500 uM GlcN6P” value in series [4] turned out to be 6.63e-05 ± 1.1e-05 s⁻¹. In addition, the “self-cleavage kobs at 10000 uM GlcN6P” value in series [5] was 6.95e-05 ± 8.6e-06 s⁻¹.
A33C A39U: in series [1], the kcat turned out to be 0.000401 ± 2.3e-05 s⁻¹. Further, the KM in series [2] came out at 4 ± 0.47 mM. In series [3], the “self-cleavage kobs at 640 uM GlcN6P” value was found to be 5.65e-05 ± 7.9e-06 s⁻¹. The “self-cleavage kobs at 2500 uM GlcN6P” value in series [4] turned out to be 0.000146 ± 1.9e-05 s⁻¹. Also, the “self-cleavage kobs at 10000 uM GlcN6P” value in series [5] amounted to 0.000289 ± 1.9e-05 s⁻¹.
A6G A14G: the kcat in series [1] was 0.00132 ± 0.00026 s⁻¹. In addition, the KM in series [2] is 3.74 ± 1.2 mM. Also, in series [6], the “self-cleavage kobs at 160 uM GlcN6P” value was 7.41e-05 ± 1.7e-05 s⁻¹. In series [3], the “self-cleavage kobs at 640 uM GlcN6P” value worked out at 0.000162 ± 4.1e-05 s⁻¹. Also, the “self-cleavage kobs at 2500 uM GlcN6P” value in series [4] came out at 0.000514 ± 7.9e-05 s⁻¹. Further, the “self-cleavage kobs at 10000 uM GlcN6P” value in series [5] worked out at 0.000992 ± 0.00016 s⁻¹.
